Measured values taken from the supplement of paper PMC10724198.
± gives the standard deviation of the averaged measurements.

These sequences were tested on Saccharomyces cerevisiae (assay: protein stability index of tFT-peptide fusion (C-terminal peptide) (PSI (0-1 scale)); higher = more stable (slower turnover)). Details: genetic background: wild type; temperature: 30 C.
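Note: PSI is a weighted mean of sequencing reads over stability bins, variants kept only with over 10 reads, mCherry proximal and sfGFP distal, peptide attached via GGGS linker.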

Sequence | protein stability index
NCAPVPLSPADS | 0.685 ± 0.032
NEGYLIQGVSMG | 0.706 ± 0.0084
NELRREVLEEDL | 0.657 ± 0.0085
NFFGPAIFLRRR | 0.678 ± 0.022
NFVLACYSYNYW | 0.523 ± 0.011
NGREHHLESSYN | 0.654 ± 0.038
NGSGVSEDRDEK | 0.6298 ± 0.0034
NGTLQKGGLRRQ | 0.6547 ± 0.00088
NGVLGYAVLEGE | 0.705 ± 0.044
NHHETRNDCSST | 0.771 ± 0.12
NHQKFILAACGT | 0.68 ± 0.029
NIKLKVCKEEMR | 0.5706 ± 0.0012
NIKNQEVKTHDT | 0.6796 ± 0.0054
NIKPEDRNSTNA | 0.633 ± 0.087
NIRETVILRIMQ | 0.606 ± 0.048
NIYDFQPPVSGH | 0.77 ± 0.052
NKARVDCNRSRC | 0.781 ± 0.2
NKDEVHRRRGRI | 0.718 ± 0.017
NKDKNDDRKLLG | 0.723 ± 0.12
NKDQKTKKNKRK | 0.661 ± 0.075
NKFETCIANMYI | 0.718 ± 0.058
NKHVMELPGEPG | 0.647 ± 0.0079
NKIDAGTPEKHR | 0.626 ± 0.041

Sequence | protein stability index
NKIKKTQKKKLG | 0.766 ± 0.1
NKKDCFRNRKWE | 0.593 ± 0.03
NKKKKHKNSKNN | 0.704 ± 0.055
NKKKKKKSTKRN | 0.691 ± 0.044
NKKKKQRGKKQK | 0.725 ± 0.045
NKKKKQRINIRG | 0.749 ± 0.068
NKRKNVFESTNA | 0.678 ± 0.019
NLCRFHFRNRFS | 0.565 ± 0.011
NLDFGYAERWQG | 0.768 ± 0.06
NLHLVRNEELVL | 0.6743 ± 0.0036
NLITKWTCMRLF | 0.511 ± 0.014
NLRRPLYYNGSV | 0.757 ± 0.076
NNNKKKDDNIDM | 0.618 ± 0.079
NPMSLTTKRKTE | 0.651 ± 0.11
NPQRGLNAQLFG | 0.656 ± 0.045
NPQTVNSPIFPT | 0.752 ± 0.018
NPTDIAINTGIS | 0.742 ± 0.0081
NQAQTQQMKTEW | 0.608 ± 0.05
NQAWYFVRLAGD | 0.776 ± 0.022
NQCRSQVRQNGY | 0.762 ± 0.15
NQEPRVSFCRDS | 0.716 ± 0.044
NQRCLRGKIVRC | 0.633 ± 0.03
NRDSRTLGSTVG | 0.6744 ± 0.0011

Sequence | protein stability index
NRGPPNMRQITP | 0.712 ± 0.085
NRKGNKHEKKYE | 0.691 ± 0.0039
NRNIRKKKIKNK | 0.668 ± 0.054
NRRERQQREVYN | 0.741 ± 0.21
NRRGGTLLATLF | 0.659 ± 0.017
NRSERIKDNRGK | 0.723 ± 0.025
NRSFIITRSVLS | 0.683 ± 0.029
NSALQELNKAVG | 0.625 ± 0.029
NSESVRLGLGNE | 0.705 ± 0.054
NSGSQSQDKQER | 0.658 ± 0.013
NSPKTKKTNFKE | 0.665 ± 0.017
NSRCSIQGAPLL | 0.726 ± 0.041
NSSPRFPTPDNP | 0.6618 ± 0.00081
NSVLRESSGLQL | 0.689 ± 0.044
NSVWPGYPCTHP | 0.639 ± 0.03
NTGEHVVPCKGT | 0.659 ± 0.0067
NTGGVTRVIGCV | 0.704 ± 0.029
NTGNGYDEKTME | 0.7622 ± 0.0014
NTHPPPLPTTKH | 0.7393 ± 0.007
NTNEKKRQRKKK | 0.6389 ± 0.0037
NTSKEDENKARI | 0.707 ± 0.019
NVIGSGLFVGWD | 0.795 ± 0.087
NVLIISEQNHEP | 0.748 ± 0.047

Sequence | protein stability index
NVYRYSWYCSEF | 0.728 ± 0.088
NWLYPYSLRRRG | 0.663 ± 0.13
PAAPPLGFTRTD | 0.7 ± 0.0095
PAELGAGYVMGG | 0.699 ± 0.022
PAGSRGRHSRER | 0.712 ± 0.061
PAGVPPAVCRDL | 0.609 ± 0.0092
PAHSLPPPPPPP | 0.702 ± 0.041
PALPHQPLPRPQ | 0.797 ± 0.023
PALPPLPPPPPA | 0.71 ± 0.016
PALPPPVLLRLP | 0.557 ± 0.062
PALPTPILSSPP | 0.709 ± 0.012
PAPLPFPPPSLP | 0.701 ± 0.032
PAPLPPPAPSST | 0.69 ± 0.02
PAPLRSPLVLPS | 0.721 ± 0.039
PAPPPPPPGTAA | 0.641 ± 0.061
PAPPPQSPAPYR | 0.704 ± 0.049
PAPPRSLPPSSP | 0.6536 ± 0.0058
PARPPPPRPPPP | 0.712 ± 0.03
PASLSPAVPESS | 0.719 ± 0.044
PASPCTPLPFSP | 0.686 ± 0.04
PASPTLRPYWDP | 0.645 ± 0.068
PASSAPDSSTAH | 0.7406 ± 0.0052
PAVIVAPYSQGE | 0.701 ± 0.025

Sequence | protein stability index
PAVSLPPPAPAS | 0.721 ± 0.051
PAYACLCGFGIA | 0.62754 ± 0.00056
PCGLRLAFRLSL | 0.619 ± 0.038
PCHPGASLRRRL | 0.861 ± 0.067
PCPHPLRPALIL | 0.704 ± 0.014
PCPLPVPCCLRP | 0.636 ± 0.016
PCPRIPSSRRLA | 0.574 ± 0.044
PCRANRRLVTSP | 0.628 ± 0.056
PCVISRPPRLFP | 0.752 ± 0.06
PDGGPGLLRFVL | 0.64 ± 0.015
PDLEMQMTRTRG | 0.70081 ± 0.00044
PDLLHLPAHRHA | 0.6722 ± 0.0055
PDLPHYHPPPPL | 0.727 ± 0.011
PDRPVISLLLPS | 0.646 ± 0.079
PEGCQDGASPAE | 0.759 ± 0.021
PEGLKKKKEKRI | 0.706 ± 0.049
PELLGVARDGFR | 0.65 ± 0.0097
PESTPRVHSNDY | 0.691 ± 0.027
PFFSFLYPRFYF | 0.682 ± 0.0096
PFFVRNTFTCSL | 0.735 ± 0.11
PFLRPPSPPSSP | 0.66 ± 0.013
PFPFSLPSPPLP | 0.551 ± 0.14
PFPLPPLHSSHR | 0.734 ± 0.03

Sequence | protein stability index
PFPPRPPSDRIR | 0.659 ± 0.088
PFPPTPVRRVPL | 0.715 ± 0.025
PFPRGCCRLLSP | 0.707 ± 0.012
PFRPPPRFPPPV | 0.815 ± 0.042
PFSAPRRLPRTV | 0.697 ± 0.0089
PFSGLPVRCELC | 0.672 ± 0.048
PFSLPAFLLPTL | 0.712 ± 0.053
PFSLPPPRPPRP | 0.684 ± 0.045
PFSNFFFRLSFS | 0.665 ± 0.028
PFSPHPGPPPPP | 0.7659 ± 0.002
PFSTWLSSPSLP | 0.774 ± 0.07
PFVGSSPFPLCL | 0.645 ± 0.042
PFVPPPHRDDSP | 0.746 ± 0.082
PGATSAIPPPFT | 0.738 ± 0.03
PGGLSCPSPPTI | 0.676 ± 0.057
PGLPLPPFPFFS | 0.762 ± 0.047
PGNFLSVSMSIC | 0.649 ± 0.051
PGPLVFPLPLAC | 0.578 ± 0.036
PGPSPSPPLPRF | 0.748 ± 0.014
PGPSPVLPPPPP | 0.633 ± 0.038
PGRFVVGAGRED | 0.686 ± 0.024
PGSTCWLFEFLS | 0.711 ± 0.07
PGTATRAPQLIP | 0.727 ± 0.033

Sequence | protein stability index
PHAPHPPALTPP | 0.623 ± 0.072
PHAPSHLPSSLP | 0.712 ± 0.025
PHDPHNTATNQG | 0.721 ± 0.016
PHDRSPPHGPKL | 0.742 ± 0.1
PHLDSPGPLAII | 0.682 ± 0.023
PHLPPSLFPSPP | 0.659 ± 0.073
PHLRTRRPPLLH | 0.694 ± 0.01
PHLTTPATPVLL | 0.716 ± 0.023
PHPPHPPPPPPS | 0.689 ± 0.036
PHPPPSPGPSPP | 0.707 ± 0.11
PHPPRPPRAPPP | 0.634 ± 0.024
PHPPRPSTPPPT | 0.637 ± 0.059
PHPRSVSPPPPS | 0.624 ± 0.075
PHPSAAPPPNPP | 0.759 ± 0.062
PHPSLPGPFPHP | 0.7049 ± 0.0045
PHPWTSPPAPPP | 0.698 ± 0.022
PHRLLTQITTGT | 0.746 ± 0.12
PIAASAPPLCPR | 0.692 ± 0.014
PIALPSPSSPIF | 0.669 ± 0.015
PIFQGTCPSTFV | 0.675 ± 0.02
PIFVCPFPGSLV | 0.683 ± 0.065
PIGLCLYNSPRF | 0.662 ± 0.035
